# B1: Pistol ribozyme (parent)
# chain: GGGUCGUUGUUCCAUAAUCGCGUGGAUAUGGCACGCAAGUUUCUACCGGGCACCGUAAAUGUCCGACUGGAGCCGUUCGGGCGGCUAUAAACAGACCUCAGGCCCGAAGCGUGGCGGCACCUGCCGCCGGUGGUAAAAAAGAUCGGAAGAGCACACGUCU
# Variants of: B1
# Test: aptazyme ON/OFF ratio, guanine; higher = stronger switching; co-transcriptional cleavage with and without guanine
row,Variant,aptazyme ON/OFF ratio
1,U7A U8A G9A U10C U11A C12A C13U,1.13
2,G9U U10A U11G C12G C13U,1.14
3,U7G U8C G9A U10A U11G C12G,1.19
4,U7G G9C U10A U11C C12U C13G,1.19
5,U8C G9U U10G C12A,1.66
6,U7C U8G U10A U11G C12U C13G,1.08
7,U7A U8C G9C U11C C12U C13U,1.06
8,U7A G9U U10A U11G C12A,1.07
9,U7G G9A U10G U11G C12G C13U,1.16
10,U7C U8C G9A U11A C13A,1.26
11,U8A G9C U11A C12U C13G,1.15
12,U8C G9U U10G U11C C12A C13A,1.22
13,U7A U8G G9A U10G U11G C12U C13G,1
14,U8C G9U U10C C12U,1.05
15,U7A G9C U11G C12G C13U,1.12
16,U7C U8C U10G U11G,1.49
17,U7G U8A G9C U11A C12A C13U,1.04
18,U7G U8C G9A U11G C13A,1.14
19,U7G G9U U10A U11G C13G,1.15
20,U7A U8G G9U U10A U11C C12U C13G,1.49
21,U7A U8G U10G U11A,2.88
22,U7C U10G U11A C13U,1.08
23,U7C U8A U10G C12G C13A,1.13
24,U7C U8G G9A U10G U11A C12U C13A,1.46

row,Variant,aptazyme ON/OFF ratio
1,U8C G9A U11C C12U C13A,1.16
2,U7A U10G U11G C12U,1.28
3,U7A U10A U11G C12U C13G,1.45
4,U7G G9A U10A U11C C12A,1.24
5,U7A U8C G9C C12A C13A,1.11
6,U7C U8A G9U U11G,1.21
7,U7A U8A U10A U11G C12G,0.984
8,U7A U8C U10C U11G C13G,1.24
9,U7A U8G G9C U10G U11G C12G C13G,1.24
10,U7A U8G G9C U10G U11C C12U C13G,1.37
11,U8A G9U U10C U11G C12G C13A,1.15
12,U7G U8A G9A U10C U11A C12A C13G,1.07
13,U7G G9C U11C C12A C13U,1.5
14,U7A U8G U10A U11A C13U,1.1
15,U7G U8A G9U U10G U11C C12A C13G,1.05
16,U7A U8C U11G C12U,1.28
17,U8C G9C U10C U11C C12A,1.02
18,U8C G9A U10C U11C C12G,1.18
19,U7G U8A U10C U11A C12U C13G,1.19
20,U7C G9U U10A U11C C12A,1.29
21,U7G U8A G9A U10C U11A C13A,1.08
22,U7A U8G G9A U10G U11C C12G C13A,1.4
23,U8G U10C C12A C13U,1.14
24,U8G G9U U10C U11A C12U,1.11

row,Variant,aptazyme ON/OFF ratio
1,U7A G9C U10G U11C C12G C13U,1.17
2,U7C U8G U11G,1.2
3,G9U U10G U11C C12G C13U,1.27
4,U10G U11A C12U C13U,1.36
5,U7C U8A G9C U10G U11A C12A C13A,1.17
6,U7A U8G G9U C12G C13G,1.4
7,U8A G9C U10G U11C C12U C13U,1.16
8,U7G U8G U10A C12A C13A,1.18
9,U7C U8A G9U U11C C12U C13A,1.05
10,G9C U11A C12A,1.34
11,U7G U8G G9C C12G C13G,1.13
12,U7C U8A G9U U10G C12A C13A,1.19
13,U7A G9A C12A C13U,1.37
14,U7A U8G U10C C12A C13G,1.25
15,U7C U8C G9C U11A C13U,1.08
16,G9A U10C C12G C13U,1.31
17,U7A U8G U10G U11G C12U C13U,1.38
18,U8C G9U U10A U11G C13G,1.11
19,U7G U8C G9C U10G U11G,1.17
20,U7A U8C G9U U10A U11G C12U,1.35
21,G9U U11A C13A,1.48
22,U8A,2.82
23,U7A U8A G9C U11C C12G C13A,1.06
24,U7A U8G G9A U10A U11G C12U C13G,1.52

row,Variant,aptazyme ON/OFF ratio
1,U7G G9U U10C C12G C13U,1.29
2,U7G U8G G9C U10G C12G C13G,1.12
3,U7G U8G G9A U10A C12G C13A,1.1
4,U7G U8A G9U U10A U11A C12A,1.08
5,U7C U8C U10C U11A C12U C13U,1.29
6,U7G U8G G9U U10A U11C C13U,1.07
7,U7C G9A U10G C12A C13U,1.19
8,U7C U8C G9A U10A U11C C12U,1.2
9,U8C G9U U10A U11G C12G C13A,1.13
10,U7C U8G G9A U10A C12U,1.19
11,U7G U8C G9A U10G C12U C13G,1.1
12,U7A U8C U10C U11A C12A C13A,1.18
13,G9U U11A,1.24
14,U7C U8C G9A U10A U11G C13A,1.21
15,U7C U10A U11C C12G C13A,1.2
16,G9C U10C U11A C12A C13A,1.06
17,U7G U8A G9U U10G U11G C12A C13U,1.25
18,U7G U8A U10G U11C C12A,1.48
19,U7C U8C G9U U10C U11G C13A,1.07
20,U7A U8C U10A C12U C13G,1.08
21,U7C U10G U11G C13G,1.13
22,U7G U8G U11G C12A C13A,1.24
23,U7C U8A U10A U11G C12G C13A,1.03
24,U7G U8A U10G C12A C13U,1.15

row,Variant,aptazyme ON/OFF ratio
1,U7C U8C G9A C12G C13G,1.28
2,U7C U8A G9C U10A U11A C12U,1.2
3,U7A U8A U10C U11C C13U,1.02
4,U7G U8G G9A U10A C12G C13U,1.22
5,U7C U8A G9U U10A U11G C12G,1.14
6,U7C U8C G9A U10C U11G C12G C13G,1.41
7,U7G U10A U11C C12A C13A,1.12
8,U7A G9C C12U C13A,1.05
9,G9C U10G U11C C12A C13G,1.15
10,G9C U10G U11C C12U C13G,1.09
11,U7A U10C U11G C13A,1.24
12,U7A U8C U10A U11C C12G C13A,1.08
13,U7C G9U U10G U11A,1.03
14,U8G G9A U10C C12A C13G,1.09
15,U8A U10G C12U C13G,1.23
16,U7A G9C U10G C12U C13U,1.56
17,U8C U10C U11G C12A C13G,1.21
18,U8A G9C U10A U11C C12U,1.06
19,U7A U8C G9U U10G U11G,1.11
20,U7G U8C U10C C12U C13A,1.15
21,U7G U8G U10C C12U C13A,1.47
22,U7C G9C U10A U11C C12U C13U,1.03
23,U7A U8A G9U U10C C13A,1.08
24,U7A U8G G9C U10A C12U C13A,1.31

row,Variant,aptazyme ON/OFF ratio
1,U7G U8C G9U U10C U11C C12A C13U,1.54
2,U7C U8A G9A U10G U11A C12U,1.01
3,U8A G9U U10G U11G C12U,1.28
4,U7C U8C G9U U10C U11G C13G,1.3
5,U8A G9C U10A C13A,1.15
6,U7A U8G G9U U10G U11A C13U,1.14
7,U7C U8C G9U U11A C12G C13U,1.13
8,U7A U8G G9U U11A C12U,1.38
9,U8G G9A U10C C12A C13U,1.17
10,U7C U8G G9U U10G U11G C12A C13G,1.05
11,U7G G9A U10C U11C C12U C13G,1.04
12,U7C G9U U11A C12G C13U,1.14
13,U7G U8A G9C U11C C12A C13U,1.06
14,U7A U8G G9A U10G U11G C13A,1.06
15,U8G U10A U11C C13A,1.03
16,U7G U8G U10A U11G C12A,1.16
17,U7G U8C G9U U11G C13A,1.32
18,U8G G9C U11C C12G,1.04
19,U7G U8C G9A U10A C12U C13A,1.15
20,U7C U8C G9U U10A U11G C12A C13U,1.12
21,U7G U8A G9C U10A U11G C12A C13U,1.04
22,U8G G9U U10A U11G C12G C13G,1.15
23,U7G U8G G9C U10C U11C C12A,1.09
24,U7C U8C G9C U10C U11G C12A,1.18

row,Variant,aptazyme ON/OFF ratio
1,U7G G9U U10A U11G C12U,1.4
2,U7G U8G C12G C13A,1.4
3,U7G U8C G9C U10C C12A C13G,1.1
4,U8G G9U U10A U11A C12U C13U,1.15
5,U7A U8G G9U U10G U11A C12A C13G,1.39
6,U7C G9C U11A C12A C13U,1.04
7,U10G U11C,1.03
8,U7A G9U U10G U11C C12A C13A,1.14
9,U7G U8C G9A U10G U11G C12A C13G,1.1
10,U7G U8A U10C C12G C13U,1.31
11,U7G G9C U10C U11G C13G,1.17
12,U7G U8C G9C U11C C12G C13G,1.07
13,U7C U8A G9A U10G C12U C13U,0.977
14,U7C G9U U10C C12U C13U,1.08
15,U7C U8A G9A U10G U11G C12G C13U,1.2
16,U7A U8A G9U U10A C13A,1.43
17,U8G G9C U11A C12U C13A,1.03
18,U8C U11A C13G,1.07
19,U7A U8G G9C U10C U11A C12A C13A,1.17
20,U7A U8G G9A U11G C12A,1.14
21,U8G G9U U10C U11G C12U C13U,1.24
22,U7A U8C G9U U10C C12A,1.27
23,U7A G9C U10G U11G C12U C13A,1.09
